In publication PMC8885419, “Identification and mechanism of G protein-biased ligands for chemokine receptor CCR1” (Nature Chemical Biology, 2021):

T1: wild-type full-length human CCR1 fused with LgBiT at the C terminus (cryo-EM construct) (human, UniProt P32246 1-355)
T1 construct: chemokine receptor CCR1, human, wild type, full length; Expressed with a chemokine (CCL15 (26–92), CCL15 (27–92), or CCL3 (4–69) for the apo complex) fused to its N terminus by a GS linker with a TEV site; the linker was cut with TEV protease and 2*MBP removed with 3C protease; Also used here as the target of the functional rows on wild-type CCR1 in cells, whose construct for the G protein …
T1 sequence (looked up): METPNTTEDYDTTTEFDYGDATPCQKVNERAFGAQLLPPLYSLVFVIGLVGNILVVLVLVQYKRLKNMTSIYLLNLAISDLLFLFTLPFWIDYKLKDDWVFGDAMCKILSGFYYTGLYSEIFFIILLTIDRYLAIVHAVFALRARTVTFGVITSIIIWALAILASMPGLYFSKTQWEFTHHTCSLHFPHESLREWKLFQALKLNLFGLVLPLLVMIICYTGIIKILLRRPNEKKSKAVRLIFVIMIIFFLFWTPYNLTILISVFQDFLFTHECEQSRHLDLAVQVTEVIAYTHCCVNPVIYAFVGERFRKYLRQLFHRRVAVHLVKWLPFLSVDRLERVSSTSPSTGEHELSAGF

B1: CCL15 (27–92) (ligand, human, UniProt Q16663 48-113, looked up)
chain: HFAADCCTSYISQSIPCSLMKSYFETSSECSKPGVIFLTKKGRQVCAKPSGPGVQDCMKKLKPYSI
notes: chemokine CCL15, human, residues 27–92 of CCL15 (1–92); In the cryo-EM sample residues of the GS/TEV linker may remain at the C terminus; also called CCL15^M; medium form CCL15; source: SF9 insect cells, expressed fused to the N terminus of CCR1, cut with TEV protease, purified in the complex
B2: CCL15 (26–92) (ligand, human, UniProt Q16663 47-113, looked up)
chain: FHFAADCCTSYISQSIPCSLMKSYFETSSECSKPGVIFLTKKGRQVCAKPSGPGVQDCMKKLKPYSI
notes: chemokine CCL15, human, residues 26–92 of CCL15 (1–92), first residue F26; also called CCL15^L; long form CCL15; source: SF9 insect cells, expressed fused to the N terminus of CCR1, cut with TEV protease, purified in the complex

Legend:
β-arrestin2 (βarr2) = experiment: β-arrestin2 recruitment dose-response (method not named for this panel; panel d of the same figure is NanoBiT); conditions: agonist CCL15M (CCL15 27-92) at 1e-6 M (highest dose); parent: est. 100; read off a plot
[1] = molecular target: T1, wild-type full-length human CCR1 fused …; experiment: cryo-EM structure; CCL15-bound CCR1–Gi complexes (CCL15^L, CCL15^M); chemokine expressed fused to CCR1 and cut with TEV; co-expressed with Gi in SF9; NanoBiT tethering of CCR1-LgBiT and Gβ1-SmBiT; scFv16 added; 20 mM HEPES pH 7.5, 100 mM NaCl, LMNG/CHS/GDN; conditions: both partners purified

Row | Molecule | percent of parent (% wild-type/CCL15M max) (β-arrestin2 (βarr2)) | binding result [1]
1 | CCR1 (1–327 aa) with LgBiT at the C terminal (from UniProt P32246) T86A; W90A | 81 | –
2 | CCR1 (1–327 aa) with LgBiT at the C terminal (from UniProt P32246) Y113F; Y255F | 85 | –
3 | B1 | – | binds
4 | B2 | – | binds
